Key:
[1] = biological target: PqsE (purified, affinity tag removed) (Pseudomonas aeruginosa) (UniProt P20581); assay: SEC-MALS; Superdex 200 Increase column in SEC buffer, 40-150 µg of protein applied
[2] = biological target: RhlR-ATTO488 (Pseudomonas aeruginosa) (UniProt P54292); assay: MST; PqsE diluted 1:1 from 10 µM, RhlR-ATTO488 at 20 nM; 50 mM Tris pH 8.0, 300 mM NaCl, 5% glycerol, 50 µM mBTL, 0.05% Tween; 25 °C

Substance	stoichiometry N (RhlR per PqsE (2:2 complex)) [1]	Kd [2]
RhlR (untagged, co-expressed with His6-PqsE) (from UniProt P54292) (natural protein)	1	–
PqsE (purified, affinity tag removed) (from UniProt P20581) (enzyme)	–	0.146 µM
